In paper PMC12088383:

Biological target: GST-OGG1F319A (Homo sapiens, UniProt O15527 1-345, F319A)
Assay: EMSA

Sequence of GST-OGG1F319A (O15527 whole entry F319A): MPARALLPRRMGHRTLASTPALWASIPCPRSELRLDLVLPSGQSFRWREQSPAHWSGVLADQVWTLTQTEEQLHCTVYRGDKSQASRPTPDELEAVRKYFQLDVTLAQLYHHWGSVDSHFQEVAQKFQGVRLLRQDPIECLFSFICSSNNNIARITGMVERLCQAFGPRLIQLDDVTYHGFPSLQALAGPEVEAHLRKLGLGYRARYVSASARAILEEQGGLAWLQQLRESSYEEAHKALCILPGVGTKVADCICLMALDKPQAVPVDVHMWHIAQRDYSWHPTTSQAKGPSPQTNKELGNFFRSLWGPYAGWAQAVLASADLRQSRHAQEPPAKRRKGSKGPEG

B1: 8-oxoGua duplex probe (Table S1) (dsDNA)
DNA 1: AGAGAAGAAGAAGAAGAAGAGATGGGTTATTCGAACTAGC
DNA 2: GCTAGTTCGAATAACCCATCTCTTCTTCTTCTTCTTCTCT
modifications: 8-oxoguanine at position 19 of strand 1 (printed X, written as G)
binding result: no binding
